# Several values for one entry are separate records, joined by “and”; a condition that tells them apart may be missing. Equal entries are not always repeated.
# T1: RAD52(209) (Homo sapiens, UniProt P43351 1-209)
# T1 sequence: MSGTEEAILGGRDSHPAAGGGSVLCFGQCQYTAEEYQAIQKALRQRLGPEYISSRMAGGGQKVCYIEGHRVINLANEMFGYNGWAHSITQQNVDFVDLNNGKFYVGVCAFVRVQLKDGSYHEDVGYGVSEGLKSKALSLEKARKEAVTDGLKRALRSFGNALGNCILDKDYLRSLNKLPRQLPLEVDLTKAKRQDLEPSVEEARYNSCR
# B1: truncated RAD52(209) (domain or fragment, human, UniProt P43351 1-209, looked up)
# chain: T1 sequence
# notes: expected monomer molecular weight printed as 25.3 kDa; No removal of the tag is described; Plasmid was a gift from S.C; West; also called C-terminally truncated RAD52; source: E. coli BL21(DE3) with pRARE, purified (His-trap Ni-NTA, Hiload 16/600 superdex)
# B2: full-length human RAD52 (natural protein, UniProt P43351 1-418, looked up)
# chain: MSGTEEAILGGRDSHPAAGGGSVLCFGQCQYTAEEYQAIQKALRQRLGPEYISSRMAGGGQKVCYIEGHRVINLANEMFGYNGWAHSITQQNVDFVDLNNGKFYVGVCAFVRVQLKDGSYHEDVGYGVSEGLKSKALSLEKARKEAVTDGLKRALRSFGNALGNCILDKDYLRSLNKLPRQLPLEVDLTKAKRQDLEPSVEEARYNSCRPNMALGHPQLQQVTSPSRPSHAVIPADQDCSSRSLSSSAVESEATHQRKLRQKQLQQQFRERMEKQQVRVSTPSAEKSEAAPPAPPVTHSTPVTVSEPLLEKDFLAGVTQELIKTLEDNSEKWAVTPDAGDGVVKPSSRADPAQTSDTLALNNQMVTQNRTPHSVCHQKPQAKSGSWDLQTYSADQRTTGNWESHRKSQDMKKRKYDPS
# notes: RAD52, human, full length; expected monomer molecular weight printed as 48.4 kDa; No removal of the tag is described; Plasmid was a gift from W. Kagawa; source: E. coli BL21(DE3) with pRARE, purified (His-trap Ni-NTA, Hiload 16/600 superdex)
# B3: 48/60 nt annealed product (dsDNA)
# DNA 1: GCAATTAAGCTCTAAGCCATCCGCAAAAATGACCTCTTATCAAAAGGA
# DNA 2: TCCTTTTGATAAGAGGTCATTTTTGCGGATGGCTTAGAGCTTAATTGCTTTTTTTTTTTT
# What was measured:
# [1] = target: the molecule itself; assay: mass photometry; label-free single molecules landing on glass slides; Buffer 1 (Tris-HCl 20 mM, NaCl 50 mM, pH 7.5); nanomolar protein concentrations, increasing series; protomers to rings
# RAD52(209) = target: T1, RAD52(209); assay: EMSA (native annealing gel); 50-200 nM protein: annealed product runs at protein-free level; at 1 uM a ring band contains both strands (annealed or not unclear); EMSA: 25 mM Tris-acetate pH 7.5, 2 mM Mg(OAc)2, 1 mM DTT, 10 nM ssDNA, 25 C 10 min or 37 C 5 min; mass photometry: 20 mM Tris-HCl pH 7.5, 50 mM NaCl; settings: protein: recombinant; tags: His tag (pET-15b, Ni-NTA); chain copies: 11; label: 3'-ALEXA488 (Methods: ATTO488) on 48 nt; 3'-ATTO680 on 60 nt; 3' overhang 12 nt (T12) on strand 2
Binder,stoichiometry N [1],binding result (RAD52(209))
B1,11 protomers per ring,–
B2,7 protomers per ring to 13 protomers per ring (2×) and 10 protomers per ring and 10.6 protomers per ring,–
B3,–,no binding

# From paper doi:10.1101/2023.08.11.553006, “Short oligomers rather than rings of human RAD52 promote single-strand annealing” (bioRxiv, 2023)
